Experimental data taken from patent US20060105414.

Tests used:
[1] = biological target: T1, GST-IκBα (1-54), regulatory domain of IκBα, P25963
T1 chain: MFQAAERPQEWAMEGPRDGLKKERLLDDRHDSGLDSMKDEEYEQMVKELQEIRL

[2] = biological target: T2, GST-NF-κB2 (754-900) (p100C), C terminal regulatory domain of NF-κB2, Q00653
T2 chain: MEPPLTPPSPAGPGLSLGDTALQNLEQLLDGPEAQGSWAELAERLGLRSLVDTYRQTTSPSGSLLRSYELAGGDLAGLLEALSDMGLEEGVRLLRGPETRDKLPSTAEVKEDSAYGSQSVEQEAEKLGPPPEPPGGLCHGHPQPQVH

| Protein | phosphorylation of GST-IκBα (1-54) in an in vitro kinase assay [1] | phosphorylation of GST-NF-κB2 (754-900) (p100C) in an in vitro kinase assay [2] | phosphorylation of the NF-κB2 C-terminal regulatory domain in vitro [2] |
| --- | --- | --- | --- |
| IKKβ, recombinant, chromatographically pure, produced in Sf9 cells using baculoviruses (protein) MSWSPSLTTQTCGAWEMKERLGTGGFGNVIRWHNQETGEQIAIKQCRQELSPRNRERWCLEIQIMRRLTHPNVVAARDVPEGMQNLAPNDLPLLAMEYCQGGDLRKYLNQFENCCGLREGAILTLLSDIASALRYLHENRIIHRDLKPENIVLQQGEQRLIHKIIDLGYAKELDQGSLCTSFVGTLQYLAPELLEQQKYTVTVDYWSFGTLAFECITGFRPFLPNWQPVQWHSKVRQKSEVDIVVSEDLNGTVKFSSSLPYPNNLNSVLAERLEKWLQLMLMWHPRQRGTDPTYGPNGCFKALDDILNLKLVHILNMVTGTIHTYPVTEDESLQSLKARIQQDTGIPEEDQELLQEAGLALIPDKPATQCISDGKLNEGHTLDMDLVFLFDNSKITYETQISPRPQPESVSCILQEPKRNLAFFQLRKVWGQVWHSIQTLKEDCNRLQQGQRAAMMNLLRNNSCLSKMKNSMASMSQQLKAKLDFFKTSIQIDLEKYSEQTEFGITSDKLLLAWREMEQAVELCGRENEVKLLVERMMALQTDIVDLQRSPMGRKQGGTLDDLEEQARELYRRLREKPRDQRTEGDSQEMVRLLLQAIQSFEKKVRVIYTQLSKTVVCKQKALELLPKVEEVVSLMNEDEKTVVRLQEKRQKELWNLLKIACSKVRGPVSGSPDSMNASRLSQPGQLMSQPSTASNSLPEPAKKSEELVAEAHNLCTLLENAIQDTVREQDQSFTALDWSWLQTEEEEHSCLEQAS | the regulatory domain of Iκ Bα was phosphorylated more efficiently by IKKβ than by IKKα | – | – |
| IκB kinase α (IKKα), recombinant, chromatographically pure, produced in Sf9 cells using baculoviruses (protein) MERPPGLRPGAGGPWEMRERLGTGGFGNVCLYQHRELDLKIAIKSCRLELSTKNRERWCHEIQIMKKLNHANVVKACDVPEELNILIHDVPLLAMEYCSGGDLRKLLNKPENCCGLKESQILSLLSDIGSGIRYLHENKIIHRDLKPENIVLQDVGGKIIHKIIDLGYAKDVDQGSLCTSFVGTLQYLAPELFENKPYTATVDYWSFGTMVFECIAGYRPFLHHLQPFTWHEKIKKKDPKCIFACEEMSGEVRFSSHLPQPNSLCSLIVEPMENWLQLMLNWDPQQRGGPVDLTLKQPRCFVLMDHILNLKIVHILNMTSAKIISFLLPPDESLHSLQSRIERETGINTGSQELLSETGISLDPRKPASQCVLDGVRGCDSYMVYLFDKSKTVYEGPFASRSLSDCVNYIVQDSKIQLPIIQLRKVWAEAVHYVSGLKEDYSRLFQGQRAAMLSLLRYNANLTKMKNTLISASQQLKAKLEFFHKSIQLDLERYSEQMTYGISSEKMLKAWKEMEEKAIHYAEVGVIGYLEDQIMSLHAEIMELQKSPYGRRQGDLMESLEQRAIDLYKQLKHRPSDHSYSDSTEMVKIIVHTVQSQDRVLKELFGHLSKLLGCKQKIIDLLPKVEVALSNIKEADNTVMFMQGKRQKEIWHLLKIACTQSSARSLVGSSLEGAVTPQTSAWLPPTSAEHDHSLSCVVTPQDGETSAQMIEENLNCLGHLSTIIHEANEEQGNSMMNLDWSWLTE | the regulatory domain of Iκ Bα was phosphorylated more efficiently by IKKβ than by IKKα | the C terminal regulatory domain of NF-κB2 was phosphorylated most efficiently by IKKα | IKK is a more effective NF-B2 C-terminal kinase than NIK |
| NF-κB inducing kinase (NIK), recombinant, immunopurified, produced in Sf9 cells using baculoviruses (protein) MAVMEMACPGAPGSAVGQQKELPKAKEKTPPLGKKQSSVYKLEAVEKSPVFCGKWEILNDVITKGTAKEGSEAGPAAISIIAQAECENSQEFSPTFSERIFIAGSKQYSQSESLDQIPNNVAHATEGKMARVCWKGKRRSKARKKRKKKSSKSLAHAGVALAKPLPRTPEQESCTIPVQEDESPLGAPYVRNTPQFTKPLKEPGLGQLCFKQLGEGLRPALPRSELHKLISPLQCLNHVWKLHHPQDGGPLPLPTHPFPYSRLPHPFPFHPLQPWKPHPLESFLGKLACVDSQKPLPDPHLSKLACVDSPKPLPGPHLEPSCLSRGAHEKFSVEEYLVHALQGSVSSGQAHSLTSLAKTWAARGSRSREPSPKTEDNEGVLLTEKLKPVDYEYREEVHWATHQLRLGRGSFGEVHRMEDKQTGFQCAVKKVRLEVFRAEELMACAGLTSPRIVPLYGAVREGPWVNIFMELLEGGSLGQLVKEQGCLPEDRALYYLGQALEGLEYLHSRRILHGDVKADNVLLSSDGSHAALCDFGHAVCLQPDGLGKSLLTGDYIPGTETHMAPEVVLGRSCDAKVDVWSSCCMMLHMLNGCHPWTQFFRGPLCLKIASEPPPVREIPPSCAPLTAQAIQEGLRKEPIHRVSAAELGGKVNRALQQVGGLKSPWRGEYKEPRHPPPNQANYHQTLHAQPRELSPRAPGPRPAEETTGRAPKLQPPLPPEPPEPNKSPPLTLSKEESGMWEPLPLSSLEPAPARNPSSPERKATVPEQELQQLEIELFLNSLSQPFSLEEQEQILSCLSIDSLSLSDDSEKNPSKASQSSRDTLSSGVHSWSSQAEARSSSWNMVLARGRPTDTPSYFNGVKVQIQSLNGEHLHIREFHRVKVGDIATGISSQIPAAAFSLVTKDGQPVRYDMEVPDSGIDLQCTLAPDGSFAWSWRVKHGQLENRP | not at all by NIK | – | both NIK and IKKα phosphorylate the C-terminal regulatory domain of NF-κB2 |
